Measurements: PMC8330776

What follows are substances tested against SARS-CoV-2 S trimer (SARS-CoV-2) (UniProt P0DTC2) (assay: SPR).
Work on “Lentil lectin derived from Lens culinaris (natural protein)” yielded a Kd of 0.00867 µM, a koff of 0.000919 s⁻¹ and a kon of 106000 M⁻¹ s⁻¹. In the case of “erythroagglutinin PHA-E from Phaseolus vulgaris (red kidney bean) (from UniProt P05088 22-275) (natural protein)”, the Kd is reported as 0.16 µM, the koff is reported as 0.00331 s⁻¹ and the kon is reported as 20700 M⁻¹ s⁻¹. With “lectin from Datura stramonium (jimson weed, thorn apple) (natural protein)” the Kd was 0.000823 µM, the koff was 0.00144 s⁻¹ and the kon was 1.75e+06 M⁻¹ s⁻¹. Substance “lectin from Galanthus nivalis (snowdrop) (natural protein)” has a Kd of 0.00153 µM, a koff of 0.00121 s⁻¹ and a kon of 792000 M⁻¹ s⁻¹. With “leucoagglutinin PHA-L from Phaseolus vulgaris (red kidney bean) (from UniProt P05087 21-272) (natural protein)” the Kd was 0.0376 µM, the koff was 0.00262 s⁻¹ and the kon was 69700 M⁻¹ s⁻¹. Substance “phytohaemagglutinin PHA-M from Phaseolus vulgaris (red kidney bean) (natural protein)” has a Kd of 2.48 µM, a koff of 0.0196 s⁻¹ and a kon of 7890 M⁻¹ s⁻¹. With “phytohaemagglutinin PHA-P from Phaseolus vulgaris (red kidney bean) (natural protein)” the Kd was 0.0325 µM, the koff was 0.00501 s⁻¹ and the kon was 154000 M⁻¹ s⁻¹. With “sambucus sieboldiana lectin (natural protein)” the Kd was 0.0315 µM, the koff was 0.000886 s⁻¹ and the kon was 28100 M⁻¹ s⁻¹. For “succinyl-concanavalin A (natural protein)”, the Kd was 201 µM, the koff was 0.00148 s⁻¹ and the kon was 7.37 M⁻¹ s⁻¹.
